Source: IntAct's records for PubMed 15205937

B1: Cysteine and glycine-rich protein 3 (Homo sapiens), P50461 (parent)
chain: MPNWGGGAKCGACEKTVYHAEEIQCNGRSFHKTCFHCMACRKALDSTTVAAHESEIYCKVCYGRRYGPKGIGYGQGAGCLSTDTGEHLGLQFQQSPKPARSVTTSNPSKFTAKFGESEKCPRCGKSVYAAEKVMGGGKPWHKTCFRCAICGKSLESTNVTDKDGELYCKVCYAKNFGPTGIGFGGLTQQVEKKE

Variants of: B1
Conditions: with nrap_human NRAP

effect of a mutation on the interaction | Variant
disrupting interaction | C58G

Variants of: B1
Conditions: with nrap_human NRAP
Remark: another data set of the same source

effect of a mutation on the interaction | Variant
decreasing interaction | C58G

Variants of: B1
Conditions: with actn2_human ACTN2, P35609
actn2_human ACTN2, P35609, sequence (P35609 whole entry): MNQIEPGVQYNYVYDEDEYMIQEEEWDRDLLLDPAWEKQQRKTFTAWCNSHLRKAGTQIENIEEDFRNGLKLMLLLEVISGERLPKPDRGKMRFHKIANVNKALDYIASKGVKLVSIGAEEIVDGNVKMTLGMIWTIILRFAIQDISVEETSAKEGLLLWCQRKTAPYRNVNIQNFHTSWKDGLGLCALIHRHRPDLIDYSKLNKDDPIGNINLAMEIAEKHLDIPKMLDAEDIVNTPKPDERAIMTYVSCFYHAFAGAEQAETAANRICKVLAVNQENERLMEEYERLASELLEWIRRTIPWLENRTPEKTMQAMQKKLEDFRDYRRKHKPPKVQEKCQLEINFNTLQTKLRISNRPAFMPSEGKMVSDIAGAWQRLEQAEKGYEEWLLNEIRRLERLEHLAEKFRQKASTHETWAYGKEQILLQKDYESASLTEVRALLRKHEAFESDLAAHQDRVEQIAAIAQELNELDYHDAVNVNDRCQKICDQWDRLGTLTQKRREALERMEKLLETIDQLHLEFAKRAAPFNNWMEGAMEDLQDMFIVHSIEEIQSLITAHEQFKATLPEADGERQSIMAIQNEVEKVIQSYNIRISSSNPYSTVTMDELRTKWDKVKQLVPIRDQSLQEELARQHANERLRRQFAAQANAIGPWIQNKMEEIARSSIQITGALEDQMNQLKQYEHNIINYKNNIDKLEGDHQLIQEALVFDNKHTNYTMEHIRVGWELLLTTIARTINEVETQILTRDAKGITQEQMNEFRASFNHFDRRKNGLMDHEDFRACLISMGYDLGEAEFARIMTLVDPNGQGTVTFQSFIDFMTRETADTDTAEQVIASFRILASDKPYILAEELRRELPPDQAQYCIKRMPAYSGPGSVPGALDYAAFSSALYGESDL

effect of a mutation on the interaction | Variant
decreasing interaction | C58G
